These are literature values, as cited in article PMC7425896, “Polypeptides derived from α-Synuclein binding partners to prevent α-Synuclein fibrils interaction with and take-up by cells” (PLoS ONE, 2020).

The series has as its target α-Synuclein fibrils (Homo sapiens) (UniProt P37840). Kind of series: sedimentation assay.

One may read the Kd as the equilibrium constant for the complex coming apart. For Hsc70 (from UniProt P11142), the Kd is 100 nM.
